Literature values, collected in article PMC2892782.

Biological target: Lys41 (UniProt position 67, TKDRCKPVNTF)
Assay: NMR

Ribonuclease A (bovine pancreatic ribonuclease) (Bos taurus)
pKa: 8.6-9.1
